Laboratory results as given in paper PMC3206940 (PLoS ONE, 2011).

B1: SARS-CoV 3C-like protease (3CL^pro) (enzyme)
chain: SGFRKMAFPSGKVEGCMVQVTCGTTTLNGLWLDDTVYCPRHVICTAEDMLNPNYEDLLIRKSNHSFLVQAGNVQLRVIGHSMQNCLLRLKVDTSNPKTPKYKFVRIQPGQTFSVLACYNGSPSGVYQCAMRPNHTIKGSFLNGSCGSVGFNIDYDCVSFCYMHHMELPTGVHAGTDLEGKFYGPFVDRQTAQAAGTDTTITLNVLAWLYAAVINGDRWFLNRFTTTLNDFNLVAMKYNYEPLTQDHVDILGPLSAQTGIAVLDMCAALKELLQNGMNGRTILGSTILEDEFTPFDVVRQCSGVTFQ
notes: also called 3CL^pro from SARS-CoV; main protease
B2: HCoV-OC43 3C-like protease (3CL^pro) (enzyme)
chain: SGIVKMVNPTSKVEPCVVSVTYGNMTLNGLWLDDKVYCPRHVICSASDMTNPDYTNLLCRVTSSDFTVLFDRLSLTVMSYQMRGCMLVLTVTLQNSRTPKYTFGVVKPGETFTVLAAYNGKPQGAFHVTMRSSYTIKGSFLCGSCGSVGYVIMGDCVKFVYMHQLELSTGCHTGTDFNGDFYGPYKDAQVVQLPIQDYIQSVNFLAWLYAAILNNCNWFIQSDKCSVEDFNVWALSNGFSQVKSDLVIDALASMTGVSLETLLAAIKRLKNGFQGRQIMGSCSFEDELTPSDVYQQLAGIKLQ
notes: also called 3CL^pro from HCoV-OC43; main protease; not shown: His6-SUMO or His6-MBP, N-terminal, cleaved

Biological target: the molecule itself
Experiment: SEC

Row | Protein | stoichiometry N
1 | B1 | 2
2 | B2 | 2
